# Measurements from the RNAGym collection of RNA variant scans (doi:10.1021/acssynbio.7b00057).
# B1: Pistol ribozyme (parent)
# chain: GGGUCGUUGUUCCAUAAUCGCGUGGAUAUGGCACGCAAGUUUCUACCGGGCACCGUAAAUGUCCGACUGGAGCCGUUCGGGCGGCUAUAAACAGACCUCAGGCCCGAAGCGUGGCGGCACCUGCCGCCGGUGGUAAAAAAGAUCGGAAGAGCACACGUCU
# Variants of: B1
# Test: aptazyme ON/OFF ratio, guanine; higher = stronger switching; co-transcriptional cleavage with and without guanine
row,Variant,aptazyme ON/OFF ratio
1,GGGUCGGCGCCCGAUAAUCGCGUGGAUAUGGCACGCAAGUUUCUACCGGGCACCGUAAAUGUCCGACUGGAGCCGUUCGGGCGGCUAUAAACAGACCUCAGGCCCGAAGCGUGGCGGCACCUGCCGCCGGUGGUAAAAAAGAUCGGAAGAGCACACGUCU [U7G U8C U10C U11C C13G],1.04
2,GGGUCGGCGCCCAAUAAUCGCGUGGAUAUGGCACGCAAGUUUCUACCGGGCACCGUAAAUGUCCGACUGGAGCCGUUCGGGCGGCUAUAAACAGACCUCAGGCCCGAAGCGUGGCGGCACCUGCCGCCGGUGGUAAAAAAGAUCGGAAGAGCACACGUCU [U7G U8C U10C U11C C13A],1.04
3,GGGUCGGCGCCCUAUAAUCGCGUGGAUAUGGCACGCAAGUUUCUACCGGGCACCGUAAAUGUCCGACUGGAGCCGUUCGGGCGGCUAUAAACAGACCUCAGGCCCGAAGCGUGGCGGCACCUGCCGCCGGUGGUAAAAAAGAUCGGAAGAGCACACGUCU [U7G U8C U10C U11C C13U],1.07
4,GGGUCGGCGCCGGAUAAUCGCGUGGAUAUGGCACGCAAGUUUCUACCGGGCACCGUAAAUGUCCGACUGGAGCCGUUCGGGCGGCUAUAAACAGACCUCAGGCCCGAAGCGUGGCGGCACCUGCCGCCGGUGGUAAAAAAGAUCGGAAGAGCACACGUCU [U7G U8C U10C U11C C12G C13G],1.06
5,GGGUCGGCGCCGAAUAAUCGCGUGGAUAUGGCACGCAAGUUUCUACCGGGCACCGUAAAUGUCCGACUGGAGCCGUUCGGGCGGCUAUAAACAGACCUCAGGCCCGAAGCGUGGCGGCACCUGCCGCCGGUGGUAAAAAAGAUCGGAAGAGCACACGUCU [U7G U8C U10C U11C C12G C13A],1.16
6,GGGUCGGCGCCGUAUAAUCGCGUGGAUAUGGCACGCAAGUUUCUACCGGGCACCGUAAAUGUCCGACUGGAGCCGUUCGGGCGGCUAUAAACAGACCUCAGGCCCGAAGCGUGGCGGCACCUGCCGCCGGUGGUAAAAAAGAUCGGAAGAGCACACGUCU [U7G U8C U10C U11C C12G C13U],1.14
7,GGGUCGGCGCCUAAUAAUCGCGUGGAUAUGGCACGCAAGUUUCUACCGGGCACCGUAAAUGUCCGACUGGAGCCGUUCGGGCGGCUAUAAACAGACCUCAGGCCCGAAGCGUGGCGGCACCUGCCGCCGGUGGUAAAAAAGAUCGGAAGAGCACACGUCU [U7G U8C U10C U11C C12U C13A],1.08
8,GGGUCGGCGCCUUAUAAUCGCGUGGAUAUGGCACGCAAGUUUCUACCGGGCACCGUAAAUGUCCGACUGGAGCCGUUCGGGCGGCUAUAAACAGACCUCAGGCCCGAAGCGUGGCGGCACCUGCCGCCGGUGGUAAAAAAGAUCGGAAGAGCACACGUCU [U7G U8C U10C U11C C12U C13U],1.11
9,GGGUCGGCGCCUGAUAAUCGCGUGGAUAUGGCACGCAAGUUUCUACCGGGCACCGUAAAUGUCCGACUGGAGCCGUUCGGGCGGCUAUAAACAGACCUCAGGCCCGAAGCGUGGCGGCACCUGCCGCCGGUGGUAAAAAAGAUCGGAAGAGCACACGUCU [U7G U8C U10C U11C C12U C13G],1.12
10,GGGUCGGCGCAUGAUAAUCGCGUGGAUAUGGCACGCAAGUUUCUACCGGGCACCGUAAAUGUCCGACUGGAGCCGUUCGGGCGGCUAUAAACAGACCUCAGGCCCGAAGCGUGGCGGCACCUGCCGCCGGUGGUAAAAAAGAUCGGAAGAGCACACGUCU [U7G U8C U10C U11A C12U C13G],1.08
11,GGGUCGGCGCAUAAUAAUCGCGUGGAUAUGGCACGCAAGUUUCUACCGGGCACCGUAAAUGUCCGACUGGAGCCGUUCGGGCGGCUAUAAACAGACCUCAGGCCCGAAGCGUGGCGGCACCUGCCGCCGGUGGUAAAAAAGAUCGGAAGAGCACACGUCU [U7G U8C U10C U11A C12U C13A],1.12
12,GGGUCGGCGCAUUAUAAUCGCGUGGAUAUGGCACGCAAGUUUCUACCGGGCACCGUAAAUGUCCGACUGGAGCCGUUCGGGCGGCUAUAAACAGACCUCAGGCCCGAAGCGUGGCGGCACCUGCCGCCGGUGGUAAAAAAGAUCGGAAGAGCACACGUCU [U7G U8C U10C U11A C12U C13U],1.04
13,GGGUCGGCGCAGCAUAAUCGCGUGGAUAUGGCACGCAAGUUUCUACCGGGCACCGUAAAUGUCCGACUGGAGCCGUUCGGGCGGCUAUAAACAGACCUCAGGCCCGAAGCGUGGCGGCACCUGCCGCCGGUGGUAAAAAAGAUCGGAAGAGCACACGUCU [U7G U8C U10C U11A C12G],1.25
14,GGGUCGGCGCAUCAUAAUCGCGUGGAUAUGGCACGCAAGUUUCUACCGGGCACCGUAAAUGUCCGACUGGAGCCGUUCGGGCGGCUAUAAACAGACCUCAGGCCCGAAGCGUGGCGGCACCUGCCGCCGGUGGUAAAAAAGAUCGGAAGAGCACACGUCU [U7G U8C U10C U11A C12U],1.39
15,GGGUCGGCGCAGAAUAAUCGCGUGGAUAUGGCACGCAAGUUUCUACCGGGCACCGUAAAUGUCCGACUGGAGCCGUUCGGGCGGCUAUAAACAGACCUCAGGCCCGAAGCGUGGCGGCACCUGCCGCCGGUGGUAAAAAAGAUCGGAAGAGCACACGUCU [U7G U8C U10C U11A C12G C13A],1.13
16,GGGUCGGCGCAGGAUAAUCGCGUGGAUAUGGCACGCAAGUUUCUACCGGGCACCGUAAAUGUCCGACUGGAGCCGUUCGGGCGGCUAUAAACAGACCUCAGGCCCGAAGCGUGGCGGCACCUGCCGCCGGUGGUAAAAAAGAUCGGAAGAGCACACGUCU [U7G U8C U10C U11A C12G C13G],1.21
17,GGGUCGGCGCAGUAUAAUCGCGUGGAUAUGGCACGCAAGUUUCUACCGGGCACCGUAAAUGUCCGACUGGAGCCGUUCGGGCGGCUAUAAACAGACCUCAGGCCCGAAGCGUGGCGGCACCUGCCGCCGGUGGUAAAAAAGAUCGGAAGAGCACACGUCU [U7G U8C U10C U11A C12G C13U],1.2
18,GGGUCGGCGCGACAUAAUCGCGUGGAUAUGGCACGCAAGUUUCUACCGGGCACCGUAAAUGUCCGACUGGAGCCGUUCGGGCGGCUAUAAACAGACCUCAGGCCCGAAGCGUGGCGGCACCUGCCGCCGGUGGUAAAAAAGAUCGGAAGAGCACACGUCU [U7G U8C U10C U11G C12A],1.24

row,Variant,aptazyme ON/OFF ratio
1,GGGUCGGCGCGGCAUAAUCGCGUGGAUAUGGCACGCAAGUUUCUACCGGGCACCGUAAAUGUCCGACUGGAGCCGUUCGGGCGGCUAUAAACAGACCUCAGGCCCGAAGCGUGGCGGCACCUGCCGCCGGUGGUAAAAAAGAUCGGAAGAGCACACGUCU [U7G U8C U10C U11G C12G],1.15
2,GGGUCGGCGCCCCAUAAUCGCGUGGAUAUGGCACGCAAGUUUCUACCGGGCACCGUAAAUGUCCGACUGGAGCCGUUCGGGCGGCUAUAAACAGACCUCAGGCCCGAAGCGUGGCGGCACCUGCCGCCGGUGGUAAAAAAGAUCGGAAGAGCACACGUCU [U7G U8C U10C U11C],1.14
3,GGGUCGGCGCGCCAUAAUCGCGUGGAUAUGGCACGCAAGUUUCUACCGGGCACCGUAAAUGUCCGACUGGAGCCGUUCGGGCGGCUAUAAACAGACCUCAGGCCCGAAGCGUGGCGGCACCUGCCGCCGGUGGUAAAAAAGAUCGGAAGAGCACACGUCU [U7G U8C U10C U11G],1.27
4,GGGUCGGCGCCACAUAAUCGCGUGGAUAUGGCACGCAAGUUUCUACCGGGCACCGUAAAUGUCCGACUGGAGCCGUUCGGGCGGCUAUAAACAGACCUCAGGCCCGAAGCGUGGCGGCACCUGCCGCCGGUGGUAAAAAAGAUCGGAAGAGCACACGUCU [U7G U8C U10C U11C C12A],1.29
5,GGGUCGGCGCCUCAUAAUCGCGUGGAUAUGGCACGCAAGUUUCUACCGGGCACCGUAAAUGUCCGACUGGAGCCGUUCGGGCGGCUAUAAACAGACCUCAGGCCCGAAGCGUGGCGGCACCUGCCGCCGGUGGUAAAAAAGAUCGGAAGAGCACACGUCU [U7G U8C U10C U11C C12U],1.16
6,GGGUCGGCGCCGCAUAAUCGCGUGGAUAUGGCACGCAAGUUUCUACCGGGCACCGUAAAUGUCCGACUGGAGCCGUUCGGGCGGCUAUAAACAGACCUCAGGCCCGAAGCGUGGCGGCACCUGCCGCCGGUGGUAAAAAAGAUCGGAAGAGCACACGUCU [U7G U8C U10C U11C C12G],1.27
7,GGGUCGGCGCGAAAUAAUCGCGUGGAUAUGGCACGCAAGUUUCUACCGGGCACCGUAAAUGUCCGACUGGAGCCGUUCGGGCGGCUAUAAACAGACCUCAGGCCCGAAGCGUGGCGGCACCUGCCGCCGGUGGUAAAAAAGAUCGGAAGAGCACACGUCU [U7G U8C U10C U11G C12A C13A],1.16
8,GGGUCGGCGCGAGAUAAUCGCGUGGAUAUGGCACGCAAGUUUCUACCGGGCACCGUAAAUGUCCGACUGGAGCCGUUCGGGCGGCUAUAAACAGACCUCAGGCCCGAAGCGUGGCGGCACCUGCCGCCGGUGGUAAAAAAGAUCGGAAGAGCACACGUCU [U7G U8C U10C U11G C12A C13G],1.22
9,GGGUCGGCGCGAUAUAAUCGCGUGGAUAUGGCACGCAAGUUUCUACCGGGCACCGUAAAUGUCCGACUGGAGCCGUUCGGGCGGCUAUAAACAGACCUCAGGCCCGAAGCGUGGCGGCACCUGCCGCCGGUGGUAAAAAAGAUCGGAAGAGCACACGUCU [U7G U8C U10C U11G C12A C13U],1.29
10,GGGUCGGCGCCAUAUAAUCGCGUGGAUAUGGCACGCAAGUUUCUACCGGGCACCGUAAAUGUCCGACUGGAGCCGUUCGGGCGGCUAUAAACAGACCUCAGGCCCGAAGCGUGGCGGCACCUGCCGCCGGUGGUAAAAAAGAUCGGAAGAGCACACGUCU [U7G U8C U10C U11C C12A C13U],1.2
11,GGGUCGGCGCCAAAUAAUCGCGUGGAUAUGGCACGCAAGUUUCUACCGGGCACCGUAAAUGUCCGACUGGAGCCGUUCGGGCGGCUAUAAACAGACCUCAGGCCCGAAGCGUGGCGGCACCUGCCGCCGGUGGUAAAAAAGAUCGGAAGAGCACACGUCU [U7G U8C U10C U11C C12A C13A],1.27
12,GGGUCGGCGCCAGAUAAUCGCGUGGAUAUGGCACGCAAGUUUCUACCGGGCACCGUAAAUGUCCGACUGGAGCCGUUCGGGCGGCUAUAAACAGACCUCAGGCCCGAAGCGUGGCGGCACCUGCCGCCGGUGGUAAAAAAGAUCGGAAGAGCACACGUCU [U7G U8C U10C U11C C12A C13G],1.33
13,GGGUCGGCGCGGAAUAAUCGCGUGGAUAUGGCACGCAAGUUUCUACCGGGCACCGUAAAUGUCCGACUGGAGCCGUUCGGGCGGCUAUAAACAGACCUCAGGCCCGAAGCGUGGCGGCACCUGCCGCCGGUGGUAAAAAAGAUCGGAAGAGCACACGUCU [U7G U8C U10C U11G C12G C13A],1.13
14,GGGUCGGCGCGGGAUAAUCGCGUGGAUAUGGCACGCAAGUUUCUACCGGGCACCGUAAAUGUCCGACUGGAGCCGUUCGGGCGGCUAUAAACAGACCUCAGGCCCGAAGCGUGGCGGCACCUGCCGCCGGUGGUAAAAAAGAUCGGAAGAGCACACGUCU [U7G U8C U10C U11G C12G C13G],1.08
15,GGGUCGGCGCGGUAUAAUCGCGUGGAUAUGGCACGCAAGUUUCUACCGGGCACCGUAAAUGUCCGACUGGAGCCGUUCGGGCGGCUAUAAACAGACCUCAGGCCCGAAGCGUGGCGGCACCUGCCGCCGGUGGUAAAAAAGAUCGGAAGAGCACACGUCU [U7G U8C U10C U11G C12G C13U],1.07
16,GGGUCGGCGCACUAUAAUCGCGUGGAUAUGGCACGCAAGUUUCUACCGGGCACCGUAAAUGUCCGACUGGAGCCGUUCGGGCGGCUAUAAACAGACCUCAGGCCCGAAGCGUGGCGGCACCUGCCGCCGGUGGUAAAAAAGAUCGGAAGAGCACACGUCU [U7G U8C U10C U11A C13U],1.35
17,GGGUCGGCGCACAAUAAUCGCGUGGAUAUGGCACGCAAGUUUCUACCGGGCACCGUAAAUGUCCGACUGGAGCCGUUCGGGCGGCUAUAAACAGACCUCAGGCCCGAAGCGUGGCGGCACCUGCCGCCGGUGGUAAAAAAGAUCGGAAGAGCACACGUCU [U7G U8C U10C U11A C13A],1.18
18,GGGUCGGCGCACGAUAAUCGCGUGGAUAUGGCACGCAAGUUUCUACCGGGCACCGUAAAUGUCCGACUGGAGCCGUUCGGGCGGCUAUAAACAGACCUCAGGCCCGAAGCGUGGCGGCACCUGCCGCCGGUGGUAAAAAAGAUCGGAAGAGCACACGUCU [U7G U8C U10C U11A C13G],1.07
